Laboratory results: article PMC4024244 (Human genetics, 2013)
Substitutions are numbered along the chain they refer to.

T1: muscle-specific receptor tyrosine kinase (MuSK), wild type, expressed in HEK-293 (human, UniProt O15146 24-869)
T1 sequence (looked up): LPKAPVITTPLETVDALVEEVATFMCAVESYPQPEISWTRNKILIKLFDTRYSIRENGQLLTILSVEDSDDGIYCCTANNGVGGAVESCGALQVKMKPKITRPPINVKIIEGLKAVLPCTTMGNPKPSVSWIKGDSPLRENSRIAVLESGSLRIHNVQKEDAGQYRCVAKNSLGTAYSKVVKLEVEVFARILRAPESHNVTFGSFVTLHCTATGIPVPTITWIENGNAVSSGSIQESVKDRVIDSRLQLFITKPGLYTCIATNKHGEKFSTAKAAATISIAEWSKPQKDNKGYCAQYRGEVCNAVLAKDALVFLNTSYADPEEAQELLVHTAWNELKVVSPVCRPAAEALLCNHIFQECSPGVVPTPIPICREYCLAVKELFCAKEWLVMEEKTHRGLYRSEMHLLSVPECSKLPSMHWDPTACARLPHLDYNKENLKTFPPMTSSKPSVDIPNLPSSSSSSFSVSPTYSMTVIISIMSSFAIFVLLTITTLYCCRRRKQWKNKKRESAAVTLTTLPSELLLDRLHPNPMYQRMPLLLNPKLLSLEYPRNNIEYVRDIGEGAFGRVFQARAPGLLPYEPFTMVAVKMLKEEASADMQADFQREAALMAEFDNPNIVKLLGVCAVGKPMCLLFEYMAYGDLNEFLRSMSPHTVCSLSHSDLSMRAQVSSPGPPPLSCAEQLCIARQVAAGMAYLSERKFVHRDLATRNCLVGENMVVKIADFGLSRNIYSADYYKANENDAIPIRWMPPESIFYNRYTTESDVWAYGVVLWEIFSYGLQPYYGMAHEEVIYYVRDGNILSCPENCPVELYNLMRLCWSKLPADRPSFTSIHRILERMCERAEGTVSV

T2: MuSK protein (Millipore) (UniProt O15146 24-495)
T2 chain: T1 sequence (looked up)

B1: ColQ p.Asp370Asn (natural protein, human, UniProt Q9Y215-1 23-455, looked up)
chain: QPTFINSVLPISAALPSLDQKKRGGHKACCLLTPPPPPLFPPPFFRGGRSPLLSPDMKNLMLELETSQSPCMQGSLGSPGPPGPQGPPGLPGKTGPKGEKGELGRPGRKGRPGPPGVPGMPGPIGWPGPEGPRGEKGDLGMMGLPGSRGPMGSKGYPGSRGEKGSRGEKGDLGPKGEKGFPGFPGMLGQKGEMGPKGEPGIAGHRGPTGRPGKRGKQGQKGDSGVMGPPGKPGPSGQPGRPGPPGPPPAGQLIMGPKGERGFPGPPGRCLCGPTMNVNNPSYGESVYGPSSPRVPVIFVVNNQEELERLNTQNAIAFRRDQRSLYFKDSLGWLPIQLTPFYPVDYTANQHGTCGDGLLQPGEECDDGNSDVGDDCIRCHRAYCGDGHRHEGVEDCDGSDFGYLTCETYLPGSYGDLQCTQYCYIDSTPCRYFT
B2: ColQ p.Cys400Tyr (natural protein, human, UniProt Q9Y215-1 23-455, looked up)
chain: B1 chain with N348D, C378Y
B3: ColQ p.Tyr404Asp (natural protein, human, UniProt Q9Y215-1 23-455, looked up)
chain: B1 chain with N348D, Y382D
B4: ColQ p.Gly423Val (natural protein, human, UniProt Q9Y215-1 23-455, looked up)
chain: B1 chain with N348D, G401V
B5: ColQ p.Cys397Ser (natural protein, human, UniProt Q9Y215-1 23-455, looked up)
chain: B1 chain with N348D, C375S
B6: purified A12 asymmetric form of AChE with ColQ p.Asp370Asn (complex, human)
chain 1: B1 chain
chain 2: EGREDAELLVTVRGGRLRGIRLKTPGGPVSAFLGIPFAEPPMGPRRFLPPEPKQPWSGVVDATTFQSVCYQYVDTLYPGFEGTEMWNPNRELSEDCLYLNVWTPYPRPTSPTPVLVWIYGGGFYSGASSLDVYDGRFLVQAERTVLVSMNYRVGAFGFLALPGSREAPGNVGLLDQRLALQWVQENVAAFGGDPTSVTLFGESAGAASVGMHLLSPPSRGLFHRAVLQSGAPNGPWATVGMGEARRRATQLAHLVGCPPGGTGGNDTELVACLRTRPAQVLVNHEWHVLPQESVFRFSFVPVVDGDFLSDTPEALINAGDFHGLQVLVGVVKDEGSYFLVYGAPGFSKDNESLISRAEFLAGVRVGVPQVSDLAAEAVVLHYTDWLHPEDPARLREALSDVVGDHNVVCPVAQLAGRLAAQGARVYAYVFEHRASTLSWPLWMGVPHGYEIEFIFGIPLDPSRNYTAEEKIFAQRLMRYWANFARTGDPNEPRDPKAPQWPPYTAGAQQYVSLDLRPLEVRRGLRAQACAFWNRFLPKLLSATDTLDEAERQWKAEFHRWSSYMVHWKNQFDHYSKQDRCSDL
B7: purified A12 asymmetric form of AChE with ColQ p.Cys397Ser (complex, human)
chain 1: B1 chain with N348D, C375S
chain 2: B6 chain 2

What follows are binders tested against T1, muscle-specific receptor tyrosine … (assay: co-IP).
B1 was tested, and the “percent reduction of binding to MuSK against WT ColQ” value (“percent reduction of binding to MuSK” below) was 1.5%.
For B2, the “percent reduction of binding to MuSK” value was 5%.
With B3 the “percent reduction of binding to MuSK” value was 7.4%.
In the case of B4, the “percent reduction of binding to MuSK” value is reported as 16.8%.
B5 was tested, and the “percent reduction of binding to MuSK” value was 6.7%.

Biological target: T2, MuSK protein (Millipore)
Assay: plate overlay binding assay with
B6 showed an other of 15%.
Work on B7 yielded an other of 18%.
